In patent publication US20080081783A1 (published 2008):
Where two headings read alike, the source gives them in different places. Bridge positions count the residues as written; N and C are the ends. Square brackets hold non-standard residues; d marks the D form. Ends that are not written are not given here. 1Nal = N[C@@H](Cc1cccc2ccccc12)C(=O)O; Sar = CNCC(=O)O

Legend:
[1] = target: T1, chimeric receptor comprising the extra-cellular portion of the human EPO receptor to the intra-cellular … (human, UniProt P19235 25-250; Q99062 651-836, limits assumed); test: cell-based or functional assay
T1 sequence (looked up): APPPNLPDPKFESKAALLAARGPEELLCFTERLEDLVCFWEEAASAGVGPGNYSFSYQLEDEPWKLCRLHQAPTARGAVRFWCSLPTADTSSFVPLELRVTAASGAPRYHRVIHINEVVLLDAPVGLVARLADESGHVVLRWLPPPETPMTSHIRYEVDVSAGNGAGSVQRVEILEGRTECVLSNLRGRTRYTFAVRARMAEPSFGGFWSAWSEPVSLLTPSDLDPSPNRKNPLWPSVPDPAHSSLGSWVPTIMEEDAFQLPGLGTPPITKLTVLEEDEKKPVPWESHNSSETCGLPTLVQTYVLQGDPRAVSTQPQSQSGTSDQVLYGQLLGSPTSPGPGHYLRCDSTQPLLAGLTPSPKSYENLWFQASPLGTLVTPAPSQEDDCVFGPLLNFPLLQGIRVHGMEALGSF

[2] = target: T2, human EPO-R (human, UniProt P19235 25-508); test: cell-based or functional assay
T2 sequence (looked up): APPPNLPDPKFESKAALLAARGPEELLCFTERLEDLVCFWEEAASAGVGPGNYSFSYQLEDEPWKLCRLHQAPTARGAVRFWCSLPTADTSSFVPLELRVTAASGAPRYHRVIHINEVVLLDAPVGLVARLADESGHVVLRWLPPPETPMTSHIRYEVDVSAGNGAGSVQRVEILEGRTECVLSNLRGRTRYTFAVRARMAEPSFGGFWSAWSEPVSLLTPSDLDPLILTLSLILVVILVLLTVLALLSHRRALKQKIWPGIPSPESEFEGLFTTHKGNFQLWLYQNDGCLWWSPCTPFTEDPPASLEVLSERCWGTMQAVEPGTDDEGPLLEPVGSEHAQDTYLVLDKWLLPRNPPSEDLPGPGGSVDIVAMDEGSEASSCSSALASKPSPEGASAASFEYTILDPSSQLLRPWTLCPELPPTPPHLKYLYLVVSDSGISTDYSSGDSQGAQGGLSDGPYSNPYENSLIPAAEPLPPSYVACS

[3] = target: T3, Recombinant Human EPO R/Fc Chimera (human, UniProt P19235 25-250); test: radioligand competition; competitor 125I-EPO; EPO R/Fc chimera captured on protein-G Sepharose
T3 construct: extracellular domain; Bought from R&D Systems, catalog number 963-ER; also called recombinant EPOr extracellular domain fused to the Fc portion of human IgG1; recombinant erythropoietin receptor; not shown: Fc portion of human IgG1
T3 sequence (looked up): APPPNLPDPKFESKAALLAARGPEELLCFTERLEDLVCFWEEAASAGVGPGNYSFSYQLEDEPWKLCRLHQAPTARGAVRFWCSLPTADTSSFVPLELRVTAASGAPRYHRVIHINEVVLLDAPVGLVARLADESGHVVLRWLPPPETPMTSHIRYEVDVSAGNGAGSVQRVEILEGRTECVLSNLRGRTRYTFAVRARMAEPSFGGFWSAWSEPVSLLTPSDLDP

[4] = target: T1, chimeric receptor comprising the …; test: cell-based or functional assay; remark: listed apart in the source
[5] = target: T2, human EPO-R; test: cell-based or functional assay; remark: listed apart in the source
[6] = target: recombinant EPO-R (produced in Chinese Hamster Ovary cells as a fusion protein to a portion of the human … (human, UniProt P05187 490-506)); test: competitive binding; the column head says only 'IC50'; taken as the AlphaQuest bead proximity assay against the biotinylated tracer SEQ ID NO: 4, by paragraph 206

B1: Peptide III (SEQ ID NO: 3) (peptide)
peptide: Ac-XGLYACHMGPIT[1Nal]VCQPLR[Sar]
modifications: disulfide 6-15; not fully specified (residue 1); printed as (AcG)GLYACHMGPIT(1-nal)VCQPLR(MeG); also: homodimer, C-termini joined to alpha- and epsilon-amino groups of a lysine linker, PEG attached through a spacer, linkage and PEG size not readable
Reporter EC50 [1]: 150 pM | Proliferation EC50 [2]: 72000 pM

B2: Peptide I (SEQ ID NO: 2) (peptide)
peptide: Ac-XGLYACHMGPIT[1Nal]VCQPLR[Sar]K
modifications: disulfide 6-15; not fully specified (residues 1, 21); printed as (AcG)GLYACHMGPIT(1-nal)VCQPLR(MeG)K; also: homodimer joined by a branched tertiary amide linker on the epsilon-N of Lys21, PEG attached through a spacer, exact linker and PEG structure not readable
notes: The exact structure (linker, spacer, PEG size, carbamate or amide linkage) stands only in drawing CHEM-US-00099, which is not readable here
IC50 [3]: 111 pM | Reporter EC50 [4]: 195 pM | Proliferation EC50 [5]: 165 pM

B3: Peptide II (SEQ ID NO: 3) (peptide)
peptide: Ac-XGLYACHMGPIT[1Nal]VCQPLR[Sar]
modifications: disulfide 6-15 (inferred); not fully specified (residue 1); printed as (AcG)GLYACHMGPIT(1-nal)VCQPLR(MeG); also: homodimer, C-termini joined to alpha- and epsilon-amino groups of a lysine linker, PEG attached through a spacer, linkage and PEG size not readable
notes: What sets it apart from Peptide III (PEG linkage or size) stands only in drawing CHEM-US-00080
IC50 [6]: 110 pM
